Sequences and labels used below:
T1: human NPY5 receptor (human, UniProt Q15761 1-445)
T1 sequence (looked up): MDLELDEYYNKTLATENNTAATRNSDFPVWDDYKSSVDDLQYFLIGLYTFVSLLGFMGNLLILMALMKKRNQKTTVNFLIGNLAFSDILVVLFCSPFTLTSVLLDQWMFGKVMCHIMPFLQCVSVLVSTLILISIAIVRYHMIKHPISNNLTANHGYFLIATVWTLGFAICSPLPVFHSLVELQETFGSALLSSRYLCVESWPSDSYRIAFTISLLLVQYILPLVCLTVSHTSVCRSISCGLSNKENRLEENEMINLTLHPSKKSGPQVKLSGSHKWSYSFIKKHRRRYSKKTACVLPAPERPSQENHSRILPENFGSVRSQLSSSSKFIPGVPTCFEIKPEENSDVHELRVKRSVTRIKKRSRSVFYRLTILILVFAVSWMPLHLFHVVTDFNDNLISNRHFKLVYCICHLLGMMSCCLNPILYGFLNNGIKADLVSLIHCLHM

T2: human NPY2 receptor (human, UniProt P49146 1-381)
T2 sequence (looked up): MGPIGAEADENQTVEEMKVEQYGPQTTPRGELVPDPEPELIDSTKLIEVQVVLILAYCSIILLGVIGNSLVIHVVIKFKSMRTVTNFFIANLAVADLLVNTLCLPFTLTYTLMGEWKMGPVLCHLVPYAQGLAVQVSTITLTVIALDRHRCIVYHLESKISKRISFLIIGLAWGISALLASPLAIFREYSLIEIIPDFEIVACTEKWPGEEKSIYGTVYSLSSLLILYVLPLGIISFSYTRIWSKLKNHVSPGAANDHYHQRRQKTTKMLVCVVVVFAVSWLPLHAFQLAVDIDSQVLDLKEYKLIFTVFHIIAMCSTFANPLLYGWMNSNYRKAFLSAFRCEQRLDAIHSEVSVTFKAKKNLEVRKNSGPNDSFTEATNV

B1: Compound 12 (peptide)
peptide: Isovaleryl-APEK([Ahx-γGlu-C18 diacid])PEEDASPEELQQYYVSLRHYYHWLTRQRY-NH2
SMILES: CC(C)CC(=O)N[C@@H](C)C(=O)N1CCC[C@H]1C(=O)N[C@@H](CCC(=O)O)C(=O)N[C@@H](CCCCNC(=O)CCCCCNC(=O)CC[C@H](NC(=O)CCCCCCCCCCCCCCCCC(=O)O)C(=O)O)C(=O)N1CCC[C@H]1C(=O)N[C@@H](CCC(=O)O)C(=O)N[C@@H](CCC(=O)O)C(=O)N[C@@H](CC(=O)O)C(=O)N[C@@H](C)C(=O)N[C@@H](CO)C(=O)N1CCC[C@H]1C(=O)N[C@@H](CCC(=O)O)C(=O)N[C@@H](CCC(=O)O)C(=O)N[C@@H](CC(C)C)C(=O)N[C@@H](CCC(N)=O)C(=O)N[C@@H](CCC(N)=O)C(=O)N[C@@H](Cc1ccc(O)cc1)C(=O)N[C@@H](Cc1ccc(O)cc1)C(=O)N[C@H](C(=O)N[C@@H](CO)C(=O)N[C@@H](CC(C)C)C(=O)N[C@@H](CCCNC(=N)N)C(=O)N[C@@H](Cc1c[nH]cn1)C(=O)N[C@@H](Cc1ccc(O)cc1)C(=O)N[C@@H](Cc1ccc(O)cc1)C(=O)N[C@@H](Cc1c[nH]cn1)C(=O)N[C@@H](Cc1c[nH]c2ccccc12)C(=O)N[C@@H](CC(C)C)C(=O)N[C@H](C(=O)N[C@@H](CCCNC(=N)N)C(=O)N[C@@H](CCC(N)=O)C(=O)N[C@@H](CCCNC(=N)N)C(=O)N[C@@H](Cc1ccc(O)cc1)C(N)=O)[C@@H](C)O)C(C)C
B2: Compound 191 (peptide)
peptide: Isovaleryl-APEK([Ahx-γGlu-C18 diacid])PEEDATPEEIQRYYESLRHYYNWLTRQRY-NH2
SMILES: CC[C@H](C)[C@H](NC(=O)[C@H](CCC(=O)O)NC(=O)[C@H](CCC(=O)O)NC(=O)[C@@H]1CCCN1C(=O)[C@@H](NC(=O)[C@H](C)NC(=O)[C@H](CC(=O)O)NC(=O)[C@H](CCC(=O)O)NC(=O)[C@H](CCC(=O)O)NC(=O)[C@@H]1CCCN1C(=O)[C@H](CCCCNC(=O)CCCCCNC(=O)CC[C@H](NC(=O)CCCCCCCCCCCCCCCCC(=O)O)C(=O)O)NC(=O)[C@H](CCC(=O)O)NC(=O)[C@@H]1CCCN1C(=O)[C@H](C)NC(=O)CC(C)C)[C@@H](C)O)C(=O)N[C@@H](CCC(N)=O)C(=O)N[C@@H](CCCNC(=N)N)C(=O)N[C@@H](Cc1ccc(O)cc1)C(=O)N[C@@H](Cc1ccc(O)cc1)C(=O)N[C@@H](CCC(=O)O)C(=O)N[C@@H](CO)C(=O)N[C@@H](CC(C)C)C(=O)N[C@@H](CCCNC(=N)N)C(=O)N[C@@H](Cc1c[nH]cn1)C(=O)N[C@@H](Cc1ccc(O)cc1)C(=O)N[C@@H](Cc1ccc(O)cc1)C(=O)N[C@@H](CC(N)=O)C(=O)N[C@@H](Cc1c[nH]c2ccccc12)C(=O)N[C@@H](CC(C)C)C(=O)N[C@H](C(=O)N[C@@H](CCCNC(=N)N)C(=O)N[C@@H](CCC(N)=O)C(=O)N[C@@H](CCCNC(=N)N)C(=O)N[C@@H](Cc1ccc(O)cc1)C(N)=O)[C@@H](C)O
B3: Compound 198 (peptide)
peptide: Isovaleryl-APAK([Ahx-γGlu-C18 diacid])PEADAEPEEIQRYYVSLRHYYNWLTRQRY-NH2
SMILES: CC[C@H](C)[C@H](NC(=O)[C@H](CCC(=O)O)NC(=O)[C@H](CCC(=O)O)NC(=O)[C@@H]1CCCN1C(=O)[C@H](CCC(=O)O)NC(=O)[C@H](C)NC(=O)[C@H](CC(=O)O)NC(=O)[C@H](C)NC(=O)[C@H](CCC(=O)O)NC(=O)[C@@H]1CCCN1C(=O)[C@H](CCCCNC(=O)CCCCCNC(=O)CC[C@H](NC(=O)CCCCCCCCCCCCCCCCC(=O)O)C(=O)O)NC(=O)[C@H](C)NC(=O)[C@@H]1CCCN1C(=O)[C@H](C)NC(=O)CC(C)C)C(=O)N[C@@H](CCC(N)=O)C(=O)N[C@@H](CCCNC(=N)N)C(=O)N[C@@H](Cc1ccc(O)cc1)C(=O)N[C@@H](Cc1ccc(O)cc1)C(=O)N[C@H](C(=O)N[C@@H](CO)C(=O)N[C@@H](CC(C)C)C(=O)N[C@@H](CCCNC(=N)N)C(=O)N[C@@H](Cc1c[nH]cn1)C(=O)N[C@@H](Cc1ccc(O)cc1)C(=O)N[C@@H](Cc1ccc(O)cc1)C(=O)N[C@@H](CC(N)=O)C(=O)N[C@@H](Cc1c[nH]c2ccccc12)C(=O)N[C@@H](CC(C)C)C(=O)N[C@H](C(=O)N[C@@H](CCCNC(=N)N)C(=O)N[C@@H](CCC(N)=O)C(=O)N[C@@H](CCCNC(=N)N)C(=O)N[C@@H](Cc1ccc(O)cc1)C(N)=O)[C@@H](C)O)C(C)C
B4: Compound 192 (peptide)
peptide: Isovaleryl-APEK([Ahx-γGlu-C18 diacid])PEAPASPEELQRYYVSLRHYYNWLTRQRY-NH2
SMILES: CC(C)CC(=O)N[C@@H](C)C(=O)N1CCC[C@H]1C(=O)N[C@@H](CCC(=O)O)C(=O)N[C@@H](CCCCNC(=O)CCCCCNC(=O)CC[C@H](NC(=O)CCCCCCCCCCCCCCCCC(=O)O)C(=O)O)C(=O)N1CCC[C@H]1C(=O)N[C@@H](CCC(=O)O)C(=O)N[C@@H](C)C(=O)N1CCC[C@H]1C(=O)N[C@@H](C)C(=O)N[C@@H](CO)C(=O)N1CCC[C@H]1C(=O)N[C@@H](CCC(=O)O)C(=O)N[C@@H](CCC(=O)O)C(=O)N[C@@H](CC(C)C)C(=O)N[C@@H](CCC(N)=O)C(=O)N[C@@H](CCCNC(=N)N)C(=O)N[C@@H](Cc1ccc(O)cc1)C(=O)N[C@@H](Cc1ccc(O)cc1)C(=O)N[C@H](C(=O)N[C@@H](CO)C(=O)N[C@@H](CC(C)C)C(=O)N[C@@H](CCCNC(=N)N)C(=O)N[C@@H](Cc1c[nH]cn1)C(=O)N[C@@H](Cc1ccc(O)cc1)C(=O)N[C@@H](Cc1ccc(O)cc1)C(=O)N[C@@H](CC(N)=O)C(=O)N[C@@H](Cc1c[nH]c2ccccc12)C(=O)N[C@@H](CC(C)C)C(=O)N[C@H](C(=O)N[C@@H](CCCNC(=N)N)C(=O)N[C@@H](CCC(N)=O)C(=O)N[C@@H](CCCNC(=N)N)C(=O)N[C@@H](Cc1ccc(O)cc1)C(N)=O)[C@@H](C)O)C(C)C
B5: Compound 199 (peptide)
peptide: Isovaleryl-APAK([Ahx-γGlu-C18 diacid])PEEEASPEELQRYYVSLRHYYNWLTRQRY-NH2
SMILES: CC(C)CC(=O)N[C@@H](C)C(=O)N1CCC[C@H]1C(=O)N[C@@H](C)C(=O)N[C@@H](CCCCNC(=O)CCCCCNC(=O)CC[C@H](NC(=O)CCCCCCCCCCCCCCCCC(=O)O)C(=O)O)C(=O)N1CCC[C@H]1C(=O)N[C@@H](CCC(=O)O)C(=O)N[C@@H](CCC(=O)O)C(=O)N[C@@H](CCC(=O)O)C(=O)N[C@@H](C)C(=O)N[C@@H](CO)C(=O)N1CCC[C@H]1C(=O)N[C@@H](CCC(=O)O)C(=O)N[C@@H](CCC(=O)O)C(=O)N[C@@H](CC(C)C)C(=O)N[C@@H](CCC(N)=O)C(=O)N[C@@H](CCCNC(=N)N)C(=O)N[C@@H](Cc1ccc(O)cc1)C(=O)N[C@@H](Cc1ccc(O)cc1)C(=O)N[C@H](C(=O)N[C@@H](CO)C(=O)N[C@@H](CC(C)C)C(=O)N[C@@H](CCCNC(=N)N)C(=O)N[C@@H](Cc1c[nH]cn1)C(=O)N[C@@H](Cc1ccc(O)cc1)C(=O)N[C@@H](Cc1ccc(O)cc1)C(=O)N[C@@H](CC(N)=O)C(=O)N[C@@H](Cc1c[nH]c2ccccc12)C(=O)N[C@@H](CC(C)C)C(=O)N[C@H](C(=O)N[C@@H](CCCNC(=N)N)C(=O)N[C@@H](CCC(N)=O)C(=O)N[C@@H](CCCNC(=N)N)C(=O)N[C@@H](Cc1ccc(O)cc1)C(N)=O)[C@@H](C)O)C(C)C
B6: Compound 174 (peptide)
peptide: Isovaleryl-APEK([Ahx-γGlu-C18 diacid])PGADASPEKLQRYYVSLRHYYHKLTRQRY-NH2
SMILES: CC(C)CC(=O)N[C@@H](C)C(=O)N1CCC[C@H]1C(=O)N[C@@H](CCC(=O)O)C(=O)N[C@@H](CCCCNC(=O)CCCCCNC(=O)CC[C@H](NC(=O)CCCCCCCCCCCCCCCCC(=O)O)C(=O)O)C(=O)N1CCC[C@H]1C(=O)NCC(=O)N[C@@H](C)C(=O)N[C@@H](CC(=O)O)C(=O)N[C@@H](C)C(=O)N[C@@H](CO)C(=O)N1CCC[C@H]1C(=O)N[C@@H](CCC(=O)O)C(=O)N[C@@H](CCCCN)C(=O)N[C@@H](CC(C)C)C(=O)N[C@@H](CCC(N)=O)C(=O)N[C@@H](CCCNC(=N)N)C(=O)N[C@@H](Cc1ccc(O)cc1)C(=O)N[C@@H](Cc1ccc(O)cc1)C(=O)N[C@H](C(=O)N[C@@H](CO)C(=O)N[C@@H](CC(C)C)C(=O)N[C@@H](CCCNC(=N)N)C(=O)N[C@@H](Cc1c[nH]cn1)C(=O)N[C@@H](Cc1ccc(O)cc1)C(=O)N[C@@H](Cc1ccc(O)cc1)C(=O)N[C@@H](Cc1c[nH]cn1)C(=O)N[C@@H](CCCCN)C(=O)N[C@@H](CC(C)C)C(=O)N[C@H](C(=O)N[C@@H](CCCNC(=N)N)C(=O)N[C@@H](CCC(N)=O)C(=O)N[C@@H](CCCNC(=N)N)C(=O)N[C@@H](Cc1ccc(O)cc1)C(N)=O)[C@@H](C)O)C(C)C

*1 amine or outer side, *2 acyl side, *3 side chain or, on linkers, in order; H or OH if unused. Side-chain parts run from the residue outwards. The star is where a group is joined. C18 diacid = O=C(O)CCCCCCCCCCCCCCCCC(=O)*; γGlu = O=C(O)[C@H](CCC(=O)[*:2])N[*:1]; Isovaleryl = CC(C)CC(=O)*; Ahx = NCCCCCC(=O)O

One may read the Ki as the dissociation constant of the complex between target and ligand, obtained from inhibition or displacement.

One test has as its target T1, human NPY5 receptor. Kind of test: cell-based or functional assay.
Turning to B1, the “EC50, HTRF cAMP Gi assay” value was > 5000 nM. On the same count and under the same terms, the result for Isovaleryl-APEK([Ahx-γGlu-C18 diacid])PEADASPEEIQRYYVSLRHYYNWLTRQRY-NH2 [Compound 140] reads > 5000 nM.

A further test has as its target T2, human NPY2 receptor. Nature of the test: cell-based or functional assay.
Consider B1, for which the “EC50, HTRF cAMP Gi assay” value worked out at 0.25 nM.

A further test addresses T2, human NPY2 receptor. Kind of test: RLB: displacement of 125I-PYY(1-36) from hNPY2R membranes. (Displacement assays read how much labelled ligand stays bound in the presence of the test substance.)
The molecule B1 had a Ki of 4.16 nM. Still for that read-out and setting: for Isovaleryl-APEK([Ahx-γGlu-C18 diacid])PEADASPEEIQRYYVSLRHYYNWLTRQRY-NH2 [Compound 140] the value was 1.41 nM; for B2, 8.32 nM. B3 yielded a Ki of 1.38 nM. B4 returned a Ki of 0.74 nM. The same measure, in the same setting: the result for B5 reads 2.87 nM. Take B6: the Ki was determined as 0.21 nM. Compared with the last molecule, the Ki is about 14-fold lower.
